Source: patent US6518397B1, “Pharmaceuticals for modulating hormone responsiveness” (priority 1995, dated 2003)
Entries after “also recorded” stand apart in the source; their conditions may differ. Where no end group is shown, it is not given here.

target: T1, DNA binding domain of recombinant rat androgen receptor (AR) / calreticulin (p60) (Homo sapiens, UniProt P27797); experiment: Gel mobility shift (gel retardation) assay: calreticulin (p60) inhibition of AR-ARE binding and its reversal by peptides/antibody; settings: calreticulin 2 μg; peptides at 50-fold molar excess
T1 construct: endogenous in cells
T1 sequence (P27797 18-417): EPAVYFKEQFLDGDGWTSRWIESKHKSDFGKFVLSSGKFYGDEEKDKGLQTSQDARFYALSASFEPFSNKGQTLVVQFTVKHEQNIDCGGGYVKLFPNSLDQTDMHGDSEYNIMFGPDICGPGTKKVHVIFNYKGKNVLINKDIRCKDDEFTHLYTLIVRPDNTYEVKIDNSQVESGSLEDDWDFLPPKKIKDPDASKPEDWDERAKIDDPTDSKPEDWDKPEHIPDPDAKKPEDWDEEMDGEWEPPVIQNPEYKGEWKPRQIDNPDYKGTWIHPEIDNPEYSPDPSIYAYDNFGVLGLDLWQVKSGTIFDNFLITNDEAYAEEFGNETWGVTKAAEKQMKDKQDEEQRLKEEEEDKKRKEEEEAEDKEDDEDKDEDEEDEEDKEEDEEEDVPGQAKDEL
Protocol: To determine whether p60 (calreticulin) could directly modulate the binding of nuclear hormone receptors to DNA via the KXFFX^1R [SEQ ID NO:1] sequence, the interaction of the DNA binding domain of recombinant androgen receptor with its hormone responsive element was analyzed by carrying out gel mobility shift assays.
As described in Rennie et al., 1993, DNA binding domain of recombinant rat androgen receptor was prepared as a GST-fusion protein using the pGEX-3X vector and purified by glutathione-agarose affinity chromatography. p60 (calreticulin) was purified by affinity chromatography on KLGFFKR-sepharose [SEQ ID NO:7], followed by gel electrophoresis as described in detail in Rojiani et al., 1991. […] Recombinant calreticulin (GST-fusion protein) was prepared as described by Baksh and Michalak, 1991. Gel retardation assays were carried out as described by Rennie et al., 1993. To analyze the effect of p60, or recombinant calreticulin, on receptor-DNA binding activity, the AR was pre-incubated with p60 for 30 min at 4° C. To analyze the effects of synthetic peptides, anti-calreticulin antibody, and non-immune IgG on p60 inhibition of AR-ARE binding, the peptide, antibody or IgG were pre-incubated with p60 for 30 min at 4° C. The androgen receptor preparation was then added to these mixtures and further incubated for 30 min at 4° C.
Affinity purified DNA binding domain of the recombinant rat androgen receptor (AR) was pre-incubated with or without the indicated concentrations of purified p60 at 4° C. for 30 min. After this pre-incubation the reaction mixtures were incubated with ^32P-labeled 26 base pair ARE (Rennie et al., 1993) (androgen response element), and analyzed by gel retardation assay. The sequence of the ARE used was [SEQ ID NO:28]:
Amino acids in the KXFFX^1R [SEQ ID NO: 1] sequence were modified. Androgen receptor and calreticulin were incubated in the presence of the modified peptides and allowed to interact with an oligonucleotide containing the androgen response element (the method of this assay is described in Example 3). The interaction was analyzed by gel mobility shaft assay (FIGS. 5A-5C).

Substance	Reversal of GST-calreticulin (recombinant calreticulin) inhibition of AR-ARE interaction
KVFFKR [compound 285]	can also reverse the inhibition; also recorded: reversed

same assay, conditions: effect of substitution in KXFFX1R sequence; band shift

Substance	Effectiveness of binding to calreticulin, in words
KVFAKR [compound 429]	decreased the ability of peptides to bind calreticulin
KGFRRR [compound 421]	increased the effectiveness of binding to calreticulin
KGFFKG [compound 417]	decreased the ability of peptides to bind calreticulin
KGFRKR [compound 415]	increased the effectiveness of binding to calreticulin
KVFFKA [compound 430]	decreased the ability of peptides to bind calreticulin
KGRFRR [compound 420]	increased the effectiveness of binding to calreticulin
KVAFKR (not fully specified) [compound 427]	decreased the ability of peptides to bind calreticulin
KGRFKR [compound 414]	increased the effectiveness of binding to calreticulin
KGFFGR [compound 416]	decreased the ability of peptides to bind calreticulin

same assay, conditions: peptide, antibody or IgG pre-incubated with p60

Substance	Reversal of p60 (calreticulin) inhibition of AR-ARE binding
KVFFKR [compound 285]	reversed

same assay, conditions: protein pre-incubated with AR 30 min at 4° C.

Substance	Effect of protein on AR-ARE (receptor-DNA) complex formation
bovine serum albumin: other protein of similar size, used as control [reference compound]	did not have any effect on the nuclear receptor-DNA interaction
